For 94 variants, protein stability index results are on record in the supplement of paper PMC10567573.

The chains are these.
B1: TCAP (parent)
chain: YQRVLPLPIFTPAKMGATKEERED
B2: DCAF4 (parent)
chain: DSHILLCLMGLAETPGCATLLPAS
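Further: lentivirally expressed fusions sorted by FACS into six bins by GFP to DsRed ratio, PSI derived from sequencing read proportions per bin multiplied by bin number.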

The variants in the first data set derive from B1. Kind of data set: protein stability index of a GFP-peptide fusion (GPS, HEK-293T) (PSI 1-6); higher = more stable. To be noted: c terminus: a fixed tail appended.
As to YQRVLPLPIFTPAKMGATKETRED [E21T], the protein stability index was 1.92.
Still for that read-out and setting: in the case of YQRVLPLPIFTPAKMGATKEVRED [E21V] it was 2.35; in that of YQRVLPLPIFTPAKMGATKENRED [E21N], 1.81.
Turning to YQRVLPLPIFTPAKMGATKELRED [E21L], the protein stability index is 2.06.
In the case of YQRVLPLPIFTPAKMGATKEPRED [E21P], the protein stability index came out at 2.54.
For YQRVLPLPIFTPAKMGATKESRED [E21S], the protein stability index came to 1.91.
Regarding YQRVLPLPIFTPAKMGATKEHRED [E21H], the protein stability index amounted to 2.22.
In the case of YQRVLPLPIFTPAKMGATKECRED [E21C], the protein stability index turned out to be 2.28.
Take YQRVLPLPIFTPAKMGATKEQRED [E21Q]: the protein stability index turned out to be 1.98.
With YQRVLPLPIFTPAKMGATKERRED [E21R], the protein stability index was determined as 1.97.
Turning to YQRVLPLPIFTPAKMGATKEIRED [E21I], the protein stability index amounted to 2.2.
On the same count and under the same terms, the same measure for YQRVLPLPIFTPAKMGATKEGRED [E21G]: 1.75; for YQRVLPLPIFTPAKMGATKEFRED [E21F]: 1.95; for YQRVLPLPIFTPAKMGATKEWRED [E21W]: 2.41.
YQRVLPLPIFTPAKMGATKEMRED [E21M]: the protein stability index turned out to be 1.93.
Regarding YQRVLPLPIFTPAKMGATKEYRED [E21Y], the protein stability index was determined as 2.14.
Take YQRVLPLPIFTPAKMGATKEKRED [E21K]: the protein stability index stood at 2.1.
Still for that read-out and setting: the same measure for YQRVLPLPIFTPAKMGATKEDRED [E21D]: 2.
On to YQRVLPLPIFTPAKMGATKEARED [E21A], for which the protein stability index came out at 1.91.
For YQRVLPLPIFTPAKMGATKEECED [R22C], the protein stability index was determined as 2.04.
The same measure, in the same setting: the same measure for YQRVLPLPIFTPAKMGATKEEWED [R22W]: 1.71; for YQRVLPLPIFTPAKMGATKEELED [R22L]: 1.79; for YQRVLPLPIFTPAKMGATKEEEED [R22E]: 2.34.
For the variant YQRVLPLPIFTPAKMGATKEENED [R22N], the protein stability index came to 2.51.
YQRVLPLPIFTPAKMGATKEEMED [R22M]: the protein stability index turned out to be 1.9.
Turning to YQRVLPLPIFTPAKMGATKEEHED [R22H], the protein stability index came to 1.95.
YQRVLPLPIFTPAKMGATKEEKED [R22K]: the protein stability index stood at 2.09.
For the variant YQRVLPLPIFTPAKMGATKEEDED [R22D], the protein stability index came to 2.18.
As to YQRVLPLPIFTPAKMGATKEEIED [R22I], the protein stability index was 1.93.
Turning to YQRVLPLPIFTPAKMGATKEEPED [R22P], the protein stability index stood at 1.87.
Regarding YQRVLPLPIFTPAKMGATKEEVED [R22V], the protein stability index was 2.2.
YQRVLPLPIFTPAKMGATKEEAED [R22A]: the protein stability index amounted to 1.9.
YQRVLPLPIFTPAKMGATKEEYED [R22Y]: the protein stability index turned out to be 1.63.
YQRVLPLPIFTPAKMGATKEEFED [R22F]: the protein stability index turned out to be 1.85.
YQRVLPLPIFTPAKMGATKEETED [R22T]: the protein stability index stood at 1.86.
Consider YQRVLPLPIFTPAKMGATKEEQED [R22Q], for which the protein stability index came to 1.67.
As to YQRVLPLPIFTPAKMGATKEEGED [R22G], the protein stability index was determined as 2.47.
YQRVLPLPIFTPAKMGATKEESED [R22S]: the protein stability index stood at 1.76.
On to YQRVLPLPIFTPAKMGATKSERED [E20S], for which the protein stability index came to 2.11.
Regarding YQRVLPLPIFTPAKMGATKFERED [E20F], the protein stability index stood at 1.72.
Regarding YQRVLPLPIFTPAKMGATKHERED [E20H], the protein stability index came out at 2.78.
Still for that read-out and setting: the same measure for YQRVLPLPIFTPAKMGATKRERED [E20R]: 2.48; for YQRVLPLPIFTPAKMGATKPERED [E20P]: 1.92; for YQRVLPLPIFTPAKMGATKWERED [E20W]: 2.2.
In the case of YQRVLPLPIFTPAKMGATKYERED [E20Y], the protein stability index was 2.67.
With YQRVLPLPIFTPAKMGATKQERED [E20Q], the protein stability index turned out to be 1.73.
In the case of YQRVLPLPIFTPAKMGATKIERED [E20I], the protein stability index was found to be 2.04.
Consider YQRVLPLPIFTPAKMGATKGERED [E20G], for which the protein stability index came to 2.23.
Regarding YQRVLPLPIFTPAKMGATKMERED [E20M], the protein stability index was found to be 2.4.
For YQRVLPLPIFTPAKMGATKNERED [E20N], the protein stability index was 1.89.
As for YQRVLPLPIFTPAKMGATKTERED [E20T], the protein stability index was determined as 2.13.
For YQRVLPLPIFTPAKMGATKKERED [E20K], the protein stability index is 1.81.
As for YQRVLPLPIFTPAKMGATKDERED [E20D], the protein stability index worked out at 2.02.
Turning to YQRVLPLPIFTPAKMGATKVERED [E20V], the protein stability index is 1.65.
Consider YQRVLPLPIFTPAKMGATKLERED [E20L], for which the protein stability index turned out to be 2.13.
For YQRVLPLPIFTPAKMGATKEERLD [E23L], the protein stability index worked out at 2.22.
With YQRVLPLPIFTPAKMGATKEERMD [E23M], the protein stability index turned out to be 1.9.
On to YQRVLPLPIFTPAKMGATKEERSD [E23S], for which the protein stability index worked out at 2.
Consider YQRVLPLPIFTPAKMGATKEERYD [E23Y], for which the protein stability index is 1.93.
Still for that read-out and setting: the same measure for YQRVLPLPIFTPAKMGATKEERPD [E23P]: 1.95; for YQRVLPLPIFTPAKMGATKEERGD [E23G]: 2; for YQRVLPLPIFTPAKMGATKEERQD [E23Q]: 1.69.
The same measure, in the same setting: in the case of YQRVLPLPIFTPAKMGATKEERVD [E23V] it was 2.79; in that of YQRVLPLPIFTPAKMGATKEERTD [E23T], 2.16; in that of YQRVLPLPIFTPAKMGATKEERFD [E23F], 1.64.
Still for that read-out and setting: in the case of YQRVLPLPIFTPAKMGATKEERHD [E23H] it was 2.72; in that of YQRVLPLPIFTPAKMGATKEERCD [E23C], 2.19; in that of YQRVLPLPIFTPAKMGATKEERND [E23N], 1.8.
Take YQRVLPLPIFTPAKMGATKEERDD [E23D]: the protein stability index stood at 2.04.
Take YQRVLPLPIFTPAKMGATKEERAD [E23A]: the protein stability index stood at 2.02.
For YQRVLPLPIFTPAKMGATKEERWD [E23W], the protein stability index turned out to be 2.53.
Consider YQRVLPLPIFTPAKMGATKEERID [E23I], for which the protein stability index came out at 2.3.
For YQRVLPLPIFTPAKMGATKEERRD [E23R], the protein stability index was determined as 1.92.
Still for that read-out and setting: the same measure for YQRVLPLPIFTPAKMGATKEERKD [E23K]: 1.87; for YQRVLPLPIFTPAKMGATKEEREW [D24W]: 2.26.
For YQRVLPLPIFTPAKMGATKEEREF [D24F], the protein stability index turned out to be 1.75.
On the same count and under the same terms, in the case of YQRVLPLPIFTPAKMGATKEERER [D24R] it was 1.55; in that of YQRVLPLPIFTPAKMGATKEEREC [D24C], 1.98; in that of YQRVLPLPIFTPAKMGATKEEREK [D24K], 2.17.
With YQRVLPLPIFTPAKMGATKEEREY [D24Y], the protein stability index was 1.76.
On to YQRVLPLPIFTPAKMGATKEEREM [D24M], for which the protein stability index stood at 1.86.
As to YQRVLPLPIFTPAKMGATKEEREG [D24G], the protein stability index came out at 1.84.
With YQRVLPLPIFTPAKMGATKEEREL [D24L], the protein stability index stood at 2.04.
Regarding YQRVLPLPIFTPAKMGATKEERES [D24S], the protein stability index came out at 1.45.
Same read-out and setting: the same measure for YQRVLPLPIFTPAKMGATKEEREN [D24N]: 2.22; for YQRVLPLPIFTPAKMGATKEEREP [D24P]: 1.85.
Regarding YQRVLPLPIFTPAKMGATKEEREE [D24E], the protein stability index stood at 2.21.
YQRVLPLPIFTPAKMGATKEEREA [D24A]: the protein stability index is 1.82.
As for YQRVLPLPIFTPAKMGATKEEREQ [D24Q], the protein stability index turned out to be 2.03.
For the variant YQRVLPLPIFTPAKMGATKEEREI [D24I], the protein stability index is 1.99.
The same measure, in the same setting: the same measure for YQRVLPLPIFTPAKMGATKEEREV [D24V]: 1.87; for YQRVLPLPIFTPAKMGATKEERET [D24T]: 3.05; for YQRVLPLPIFTPAKMGATKEEREH [D24H]: 1.81.

Variants of B2 are the subject of a further data set. Described as above. Particulars: c terminus: a fixed tail appended.
Take ASHILLCLMGLAETPGCATLLPAS [D1A]: the protein stability index turned out to be 2.99.
